From the supplement of paper PMC10567573

B1: ZNF449 (parent)
chain: YRHQRLHTGERPYECTVCKKRFTR

Variants of: B1
Assay: protein stability index of a GFP-peptide fusion (GPS, HEK-293T) (PSI 1-6); higher = more stable
Conditions: c terminus: a fixed tail appended
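Note: lentivirally expressed fusions sorted by FACS into six bins by GFP to DsRed ratio, PSI derived from sequencing read proportions per bin multiplied by bin number.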

| Variant | protein stability index |
| --- | --- |
| YRHQRLHTGERPYECTVCYKRFTR | 1.95 |
| YRHQRLHTGERPYECTVCFKRFTR | 2.33 |
| YRHQRLHTGERPYECTVCDKRFTR | 1.96 |
| YRHQRLHTGERPYECTVCEKRFTR | 2.01 |
| YRHQRLHTGERPYECTVCMKRFTR | 2.12 |
| YRHQRLHTGERPYECKVCKKRFTR | 2.78 |
| YRHQRLHTGERPYECRVCKKRFTR | 2.51 |
| YRHQRLHTGERPYECCVCKKRFTR | 2.09 |
| YRHQRLHTGERPYECIVCKKRFTR | 2.34 |
| YRHQRLHTGERPYECNVCKKRFTR | 2.46 |
| YRHQRLHTGERPYECDVCKKRFTR | 2.52 |
| YRHQRLHTGERPYECMVCKKRFTR | 1.98 |
| YRHQRLHTGERPYECFVCKKRFTR | 2.14 |
| YRHQRLHTGERPYECGVCKKRFTR | 2.33 |
| YRHQRLHTGERPYECAVCKKRFTR | 2.12 |
| YRHQRLHTGERPYECTYCKKRFTR | 2.2 |
| YRHQRLHTGERPYECTDCKKRFTR | 3.07 |
| YRHQRLHTGERPYECTWCKKRFTR | 2.28 |
| YRHQRLHTGERPYECTICKKRFTR | 2.25 |
| YRHQRLHTGERPYECTKCKKRFTR | 3.69 |
| YRHQRLHTGERDYECTVCKKRFTR | 2.83 |
| YRHQRLHTGERCYECTVCKKRFTR | 2.37 |
| YRHQRLHTGERAYECTVCKKRFTR | 2.54 |
| YRHQRLHTGEREYECTVCKKRFTR | 2.38 |

| Variant | protein stability index |
| --- | --- |
| YRHQRLHTGERQYECTVCKKRFTR | 2.2 |
| YRHQRLHTGERLYECTVCKKRFTR | 2.22 |
| YRHQRLHTGERHYECTVCKKRFTR | 2.26 |
| YRHQRLHTGERNYECTVCKKRFTR | 2.71 |
| YRHQRLHTGERSYECTVCKKRFTR | 2.34 |
| YRHQRLHTGERMYECTVCKKRFTR | 2.32 |
| YRHQRLHTGERTYECTVCKKRFTR | 2.88 |
| YRHQRLHTGERYYECTVCKKRFTR | 2.62 |
| YRHQRLHTGERRYECTVCKKRFTR | 2.98 |
| YRHQRLHTGERPYNCTVCKKRFTR | 2.7 |
| YRHQRLHTGERPYVCTVCKKRFTR | 2.84 |
| YRHQRLHTGERPYQCTVCKKRFTR | 2.54 |
| YRHQRLHTGERPYYCTVCKKRFTR | 2.39 |
| YRHQRLHTGERPYTCTVCKKRFTR | 2.44 |
| YRHQRLHTGERPYMCTVCKKRFTR | 2.58 |
| YRHQRLHTGERPYACTVCKKRFTR | 2.5 |
| YRHQRLHTGERPYLCTVCKKRFTR | 2.38 |
| YRHQLLHTGERPYECTVCKKRFTR | 2.15 |
| YRHQCLHTGERPYECTVCKKRFTR | 3.51 |
| YRHQPLHTGERPYECTVCKKRFTR | 2.08 |
| YRHQILHTGERPYECTVCKKRFTR | 1.89 |
| YRHQWLHTGERPYECTVCKKRFTR | 2.29 |
| YRHQYLHTGERPYECTVCKKRFTR | 2.2 |
| YRHQSLHTGERPYECTVCKKRFTR | 2.24 |

| Variant | protein stability index |
| --- | --- |
| YRHQELHTGERPYECTVCKKRFTR | 1.91 |
| YRHQRLHHGERPYECTVCKKRFTR | 2.7 |
| YRHQRLHWGERPYECTVCKKRFTR | 2.39 |
| YRHQRLHAGERPYECTVCKKRFTR | 2.32 |
| YRHQRLHQGERPYECTVCKKRFTR | 2.59 |
| YRHQRLHYGERPYECTVCKKRFTR | 2.22 |
| YRHQRLHSGERPYECTVCKKRFTR | 2.71 |
| YRHQRLHCGERPYECTVCKKRFTR | 2.4 |
| YRHQRLHPGERPYECTVCKKRFTR | 2.52 |
| YRHQRLHEGERPYECTVCKKRFTR | 2.24 |
| YRHQRLHTGERPYECTVCKKRLTR | 2.87 |
| YRHQRLHTGERPYECTVCKKRETR | 3.23 |
| YRHQRLHTGERPYECTVCKKRATR | 2.93 |
| YRHQRLHTGERPYECTVCKKRSTR | 3.06 |
| YRHQRLHTGERPYECTVCKKRDTR | 2.94 |
| YRHQRLHTGERPYECTVCKKRYTR | 2.84 |
| YRHQRLHTGERPYECTVCKKRRTR | 3.19 |
| YRHQRLHTGERPYECTVCKKRMTR | 2.48 |
| YRHQRLHTGERPYECTVQKKRFTR | 3.27 |
| YRHQRLHTGERPYECTVYKKRFTR | 2.96 |
| YRHQRLHTGERPYECTVRKKRFTR | 3.65 |
| YRHQRLHTGERPYECTVEKKRFTR | 3.48 |
| YRHQRLHTGERPYECTVTKKRFTR | 3.6 |
| YRHQRLHTGERPYECTVDKKRFTR | 3.24 |

| Variant | protein stability index |
| --- | --- |
| YRHQRLHTGERPYECTVAKKRFTR | 3.39 |
| YRHQRLHTGERPYEWTVCKKRFTR | 3.07 |
| YRHQRLHTGERPYERTVCKKRFTR | 3.53 |
| YRHQRLHTGERPYETTVCKKRFTR | 2.88 |
| YRHQRLHTGERPYEKTVCKKRFTR | 3.42 |
| YRHQRLHTGERPYEPTVCKKRFTR | 3.4 |
| YRHQRLHTGERPYESTVCKKRFTR | 3.02 |
| YRHQRLHTGERPYEQTVCKKRFTR | 3.91 |
| YRHQRLHTGERPSECTVCKKRFTR | 2.08 |
| YRHQRLHTGERPWECTVCKKRFTR | 2.44 |
| YRHQRLHTGERPLECTVCKKRFTR | 2.08 |
| YRHQRLHTGERPKECTVCKKRFTR | 2.25 |
| YRHQRLHTGERPDECTVCKKRFTR | 2.11 |
| YRHQRLHTGERPEECTVCKKRFTR | 2.63 |
| YRHQRLHTGERPAECTVCKKRFTR | 2.43 |
| YRHQRLHTGERPMECTVCKKRFTR | 2.69 |
| YPHQRLHTGERPYECTVCKKRFTR | 1.63 |
| YNHQRLHTGERPYECTVCKKRFTR | 1.56 |
| YTHQRLHTGERPYECTVCKKRFTR | 1.8 |
| YCHQRLHTGERPYECTVCKKRFTR | 2.66 |
| YDHQRLHTGERPYECTVCKKRFTR | 2.48 |
| YGHQRLHTGERPYECTVCKKRFTR | 2.92 |
